Tests used:
[1] = system: PBMCs of BLV-infected cattle; assay: Biological activity test: IFN-γ production of PBMCs of BLV-infected cattle to BLV antigen; conditions: 10 μg/ml antibody, 2% FLK-BLV supernatant, 6 days, n=10
canine PD-L1 = assay: Flow cytometry cross-reactivity with canine PD-L1 expressing cells; assay type: binding
Protocol: COS-7 cells were subcultured at a density of 5×10^4 cells/cm^2 in 6-well plates, and then cultured overnight in RPMI 1640 medium containing 10% inactivated fetal bovine serum and 0.01% L-glutamine at 37° C. in the presence of 5% CO2. The pEGFP-N2-cPD-1, pEGFP-N2-cPD-L1 or pEGFP-N2 (negative control) was introduced into COS-7 cells at 0.4 μg/cm^2 using Lipofectamine 2000 (Invitrogen). The cells were cultured for 48 hours (cPD-1-EGFP expressing cell and cPD-L1-EGFP expressing cell). In order to confirm the expression of canine PD-1 and PD-L1 in the thus prepared expressing cells, intracellular localization of enhanced green fluorescent protein (EGFP) was visualized with an inverted confocal laser microscope LSM700 (ZEISS) (Maekawa N, Konnai S, Ikebuchi R. Okagawa T, Adachi M, Takagi S, Kagawa Y. Nakajima C, Suzuki Y, Murata S, Ohashi K. PLoS One. 2014 Jun. 10; 9(6):e98415).
In order to identify rat anti-bovine PD-L1 monoclonal antibody showing cross-reactivity with canine PD-L1, flow cytometry was performed using the anti-bovine PD-L1 antibody prepared in 2.1 above. The anti-bovine PD-L1 antibody (10 μg/ml) was reacted with 2×10^5-1×10^6 cells at room temperature for 30 min. After washing, the anti-bovine PD-L1 antibody was detected with allophycocyanine-labeled anti-rat Ig goat antibody (Beckman Coulter). FACS Verse (Becton, Dickinson and Company) was used for analysis. […]

ovine PD-L1 = assay: Flow cytometry reactivity with ovine PD-L1-EGFP expressing COS-7 cells; assay type: binding; conditions: 10 μg/ml
Protocol: (§1) COS-7 cells were subcultured at a density of 5×10^4 cells/cm^2 in 6-well plates, and then cultured overnight in RPMI 1640 medium containing 10% inactivated fetal bovine serum and 0.01% L-glutamine at 37° C. in the presence of 5% CO2. The pEGFP-N2-ovPD-1, pEGFP-N2-ovPD-L1, pEGFP-N2-poPD-1, pEGFP-N2-poPD-L1 or pEGFP-N2 (negative control) was introduced into COS-7 cells at 0.4 μg/cm^2 using Lipofectamine 2000 (Invitrogen). The cells were cultured for 48 hours (ovPD-1-EGFP expressing cell, ovPD-L1-EGFP expressing cell, poPD-1-EGFP expressing cell, and poPD-L1-EGFP expressing cell). In order to confirm the expression of ovine PD-1, ovine PD-L1, porcine PD-1 and porcine PD-L1 in the thus prepared expressing cells, intracellular localization of EGFP was visualized with an inverted confocal laser microscope LSM700 (ZEISS) or an all-in-one fluorescence microscope BZ-9000 (KEYENCE). It was confirmed by flow cytometry that rat anti-bovine PD-L1 monoclonal antibody cross-reacts with ovine and porcine PD-LL. […] After washing, the cells were reacted with allophycocyanine-labeled anti-rat Ig goat antibody (Beckman Coulter) at room temperature for 30 min. For analysis, FACS Verse (BD Bioscience) was used. As a negative control antibody, rat IgG2a (κ) isotype control (BD Bioscience) was used. For every washing operation and dilution of antibodies, 1% bovine serum albumin supplemented PBS was used.

porcine PD-L1 = assay: Flow cytometry reactivity with porcine PD-L1-EGFP expressing COS-7 cells; assay type: binding; conditions: 10 μg/ml
Protocol: as §1

B1: 4G12: rat anti-bovine PD-L1 monoclonal antibody; VL SEQ ID NO: 1, VH SEQ ID NO: 2 (antibody, listed as Rattus norvegicus, V domains shown)
VH: MGWSQIILFLVAAATCVHSQVQLQQSGAELVKPGSSVKISCKASGYTFTSNFMHWVKQQPGNGLEWIGWIYPEYGNTKYNQKFDGKATLTADKSSSTAYMQLSSLTSEDSAVYFCASEEAVISLVYWGQGTLVTVSS
VL: MESQTHVLISLLLSVSGTYGDIAITQSPSSVAVSVGETVTLSCKSSQSLLYSENQKDYLGWYQQKPGQTPKPLIYWATNRHTGVPDRFTGSGSGTDFTLIISSVQAEDLADYYCGQYLVYPFTFGPGTKLELK
IFN-γ response of bovine PBMCs to BLV antigen [1]: increases | Cross-reactivity with / binding to canine PD-L1 (canine PD-L1): showed cross-reaction with canine PD-L1 | Binding to ovine PD-L1 (ovine PD-L1): binds to ovine and porcine PD-L1 | Binding to porcine PD-L1 (porcine PD-L1): binds to ovine and porcine PD-L1

Source: US11312773B2, “Anti-PD-L1 antibody” (Fuso Pharmaceutical Industries, Ltd., priority 2016, dated 2022)
